Data reported in patent US7875275B2, “Use of Bridge-1 and activators and inhibitors thereof in the treatment of insulin deficiency and diabetes” (The General Hospital Corporation, priority 2004, dated 2011).

Experiments:
[1] = target: T1, Bridge-1 (Gal4 DBD-Bridge-1) (Rattus norvegicus, UniProt Q9WTV5); test: Gal4-Bridge-1 transactivation assay in BHK cells (Gal4-luciferase reporter); assay type: cell-based
T1 construct: excision of full-length rat Bridge-1 cDNA from the previously reported Gal4-Bridge-1 (pM-Bridge-1) vector; expressed in transfected cells; host or cells: BHK cells (BHK-21 C-13), transient transfection
T1 sequence (Q9WTV5 with tags, fused parts or gaps): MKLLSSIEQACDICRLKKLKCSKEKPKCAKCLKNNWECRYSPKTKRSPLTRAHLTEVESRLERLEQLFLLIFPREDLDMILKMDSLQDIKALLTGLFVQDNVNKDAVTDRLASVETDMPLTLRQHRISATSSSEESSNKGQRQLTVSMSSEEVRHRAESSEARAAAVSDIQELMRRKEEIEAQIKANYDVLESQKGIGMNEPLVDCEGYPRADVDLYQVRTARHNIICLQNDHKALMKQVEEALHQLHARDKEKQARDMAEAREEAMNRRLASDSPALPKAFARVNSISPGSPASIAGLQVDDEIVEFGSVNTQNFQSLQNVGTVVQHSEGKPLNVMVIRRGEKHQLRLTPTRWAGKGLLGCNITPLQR
Description: FIG. 17 (a-d). The coactivator Bridge-1 interacts with multiple domains of p300. (a) Trichostatin A increases transcriptional activation by Bridge-1. BHK cells were transfected in duplicate with 1.5 μg Gal4-Bridge-1 or empty Gal4 expression vector, 3.25 μg pBluescript, and 250 ng of a Gal4-luciferase reporter and treated with vehicle (0), 2, or 4 ng/mL trichostatin A for 24 hours. Results shown are the mean+/−SEM relative luciferase activity of Gal4-Bridge-1 normalized to the empty Gal4 expression vector (n=3-5 transfections). (b) p300 increases the transcriptional activation by Bridge-1. BHK cells were transfected in duplicate with 0-3 μg of the p300 expression vector pCMV-p300 and 0.5 μg Gal4-Bridge-1 or empty Gal4 expression vector and 1 μg of a Gal4-CAT reporter. pBluescript was used to normalize the total DNA content for all conditions. Data shown are the mean of two transfections. (c) Bridge-1 directly interacts with p300. GST-Bridge-1 or GST control proteins were incubated with in vitro translated, radiolabeled [^35S]-p300 in GST protein interaction assays. A representative autoradiogram is shown of an SDS polyacrylamide gel from a GST pull-down protein interaction assay with the migration position of [^35S]-p300 designated (arrow). (d) Bridge-1 interacts with multiple domains within p300. […]
Various compounds were assayed for their ability to activate or inhibit Bridge-1 transactivation function. In these experiments, the transactivation assay previously described (Thomas, M. K. et al., Mol. Cell. Biol. 19(12):8492-8504 (1999)) incorporated herein by reference) was used with the modification that the plasmid reporter was a Gal4 luciferase reporter with luciferase activity measured rather than the Gal4CAT reporter used in 1999. […]
(§1) Cell culture and transfections. […] Transfections were conducted with Lipofectamine or Lipofectamine 2000 (Invitrogen Life Technologies) according to published methods (Thomas, M. K., et al., Molec. Cell. Biol. 19:8492-8504 (1999). Yeast transcriptional activation assays were conducted as previously reported (Thomas, M. K., et al., supra; Golemis, E. A., et al., Current Protocols in Molecular Biology, Ausubel, F. M., et al., eds., John Wiley and Sons, pp. 13.14.1-13.14.17 (1994)) with quantitative LexA-operator responsive beta-galactosidase reporter assays as outlined by the manufacturer (BD Biosciences Clontech, Palo Alto, Calif.).

[2] = target: T2, Gal4-Bridge-1 (UniProt P04386+Q9WTV5); test: Gal4-Bridge-1 transcriptional activation of Gal4-CAT reporter in BHK cells; assay type: cell-based, rat; settings: 0-3 μg pCMV-p300 expression vector
T2 construct: excision of full-length rat Bridge-1 cDNA from the previously reported Gal4-Bridge-1 (pM-Bridge-1) vector; expressed in transfected cells; host or cells: BHK cells (BHK-21 C-13), transient transfection
T2 sequence (P04386+Q9WTV5 fused): as the sequence (Q9WTV5 with tags, fused parts or gaps) above
Description: FIG. 17 (a-d). The coactivator Bridge-1 interacts with multiple domains of p300. (a) Trichostatin A increases transcriptional activation by Bridge-1. BHK cells were transfected in duplicate with 1.5 μg Gal4-Bridge-1 or empty Gal4 expression vector, 3.25 μg pBluescript, and 250 ng of a Gal4-luciferase reporter and treated with vehicle (0), 2, or 4 ng/mL trichostatin A for 24 hours. Results shown are the mean+/−SEM relative luciferase activity of Gal4-Bridge-1 normalized to the empty Gal4 expression vector (n=3-5 transfections). (b) p300 increases the transcriptional activation by Bridge-1. […]
as §1

[3] = target: T3, PDX-1 Bait (Rattus norvegicus, UniProt P52947); test: Semiquantitative yeast two-hybrid interaction trap assay; assay type: binding; parameters: key: ++: growth on leucine dropout plates and intense blue colonies on X-gal plates; −: no growh on leucine dropout plates and white colonies on X-gal plates; settings: LexA-rat PDX-1 amino acids 160-283 bait, LEU2 and lacZ reporters
T3 construct: A LexA-rat PDX-1 bait fusion protein construct consisting of PDX-1 amino acids 160-283 cloned in the vector pEG202; expressed in transfected cells
T3 sequence (P52947 160-283): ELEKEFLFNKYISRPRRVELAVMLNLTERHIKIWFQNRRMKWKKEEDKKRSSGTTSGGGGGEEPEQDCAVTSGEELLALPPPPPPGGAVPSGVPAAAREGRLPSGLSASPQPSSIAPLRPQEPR
Description: Yeast interaction trap assays. Semiquantitative yeast two-hybrid interaction trap assays were conducted as previously reported (Golemis et al., 1994; Thomas et al., 1999). A LexA-rat PDX-1 bait fusion protein construct consisting of PDX-1 amino acids 160-283 cloned in the vector pEG202 and an acidic domain-rat Bridge-1 fusion protein construct cloned in the vector pJG4-5 were independently tested for activation of LexA operator-responsive LEU2 or β-galactosidase (lacZ) reporters in yeast. Interactions of E12 with rat Twist and rat inhibitor of differentiation-3 (Id3) proteins were used as positive controls and interactions of Bridge-1 with the human interleukin-1 receptor or D. melanogaster bicoid proteins were used as negative controls for the assays (Thomas et al., 1999). Fusion protein interactions were measured independently by growth on leucine dropout plates as a measure of LEU reporter activation or by blue color intensity with growth for 72 hours at 30° C. on X-Gal (5-bromo-4-chloro-3-indoyl-β-D-galactopyranoside) plates as a measure of lacZ reporter activation.
We assessed whether Bridge-1 interacts with PDX-1 in a yeast two-hybrid interaction trap system. […] Thus the rat Bridge-1 protein interacts with a carboxy-terminal PDX-1 protein fragment in yeast cells.

[4] = Gal4-luciferase reporter, 24 hours incubation, vs vehicle

## CC(=O)[C@H]1CC[C@H]2[C@@H]3CCC4=CC(=O)CC[C@]4(C)[C@H]3CC[C@]12C [Progesterone]
[1]; [4]
  inhibition of Bridge-1 transactivation function: 22%

## CC(/C=C/C(=O)NO)=C\[C@@H](C)C(=O)c1ccc(N(C)C)cc1 [Trichostatin A]
[1]; 2 or 4 ng/mL for 24 hours
  effect on transcriptional activation by Bridge-1: increased the transcriptional activation by Bridge-1 in a dose-dependent manner
[1]; [4]
  activation of Bridge-1 transactivation function: 2.7 fold

## Activin A
[1]; [4]
  activation of Bridge-1 transactivation function: 2.34 fold

## p300: histone acetyltransferase and nuclear receptor coactivator, expressed from pCMV-p300 vector
[2]
  increase of reporter activation by Gal4-Bridge-1: over 70 fold

B1: Id3: rat inhibitor of differentiation-3 protein, control in yeast interaction trap assay (protein)
chain: MKALSPVRGCYEAVCCLSERSLAIARGRGKSPSAEEPLSLLDDMNHCYSRLRELVPGVPRGTQLSQVEILQRVIDYILDLQVVLAEPAPGPPDGPHLPIQTAELTPELVISKDKRSFCH
[3]
  Interaction with PDX-1 Bait: −

B2: Twist: rat Twist protein, control in yeast interaction trap assay (protein)
chain: MMQDVSSSPVSPADDSLSNSEEEPDRQQPASGKRGARKRRSSRRSAGGSAGPGGATGGGIGGGDEPGSPAQGKRGKKSAGGGGGAGGGGGGGGSSSGGGSPQSYEELQTQRVMANVRERQRTQSLNEAFAALRKIIPTLPSDKLSKIQTLKLAARYIDFLYQVLQSDELDSKMASCSYVAHERLSYAFSVWRMEGAWSMSASH
[3]
  Interaction with PDX-1 Bait: −

B3: Bridge-1: rat PDZ-domain transcriptional coactivator, acidic domain fusion in pJG4-5 (protein)
chain: MSSEEVRHRAESSEARAAAVSDIQELMRRKEEIEAQIKANYDVLESQKGIGMNEPLVDCEGYPRADVDLYQVRTARHNIICLQNDHKALMKQVEEALHQLHARDKEKQARDMAEAREEAMNRRLASDSPALPKAFARVNSISPGSPASIAGLQVDDEIVEFGSVNTQNFQSLQNVGTVVQHSEGKPLNVMVIRRGEKHQLRLTPTRWAGKGLLGCNITPLQR
modifications: left off: small tags and cut ends
[3]
  Interaction with PDX-1 Bait: ++
